Test [1] has as its target T1, CT45 (CT45A1, A2, A3, A5 to A10); CT45-IP peptide on HLA-A*02:01 (human).
T1 peptide: KIFEMLEGV
The experiment in a line: CT45-IP-HLA-A*02 dextramer on T cells with TCR mRNA; TCR found by tetramer sorting; full-length, on cells.

The target in test [2] is CT45-IP antigenic peptide (…) in complex with HLA-A*02 presented on cells (peptide-loaded T2 cells; NCIH1703 and A375 tumor cells) (human). The experiment in a line: cell-based or functional assay.
The target in test [3] is T2, similar peptide SP-05-0002, source protein not stated peptide on HLA-A*02:01 (human).
T2 peptide: KIFSGLLKV
The experiment in a line: killing.

Test [4] has as its target T3, similar peptide SP-05-0008, source protein not stated peptide on HLA-A*02:01 (human).
T3 peptide: KILDELEKV
As to the kind of experiment: killing.

Test [5] has as its target T4, similar peptide SP-05-0001, source protein not stated peptide on HLA-A*02:01 (human).
T4 peptide: HIMEHLEGV
The experiment in a line: killing.

In test [6] the target is T5, similar peptide SP-05-0003, source protein not stated peptide on HLA-A*02:01 (human).
T5 peptide: KVTEMLVNV
As to the kind of experiment: killing.

In test [7] the target is T6, similar peptide SP-05-0005, source protein not stated peptide on HLA-A*02:01 (human).
T6 peptide: KIEEFLEAV
The experiment in a line: killing.

Test [8] addresses T7, similar peptide SP-05-0007, source protein not stated peptide on HLA-A*02:01 (human).
T7 peptide: KIFPALCTV
The experiment in a line: killing.

The target of test [9] is T8, CT45-IP alanine variant, position 8 peptide on HLA-A*02:01 (human).
T8 peptide: KIFEMLEAV
As to the kind of experiment: killing.

Test [10] concerns the target T9, similar peptide SP-05-0004, source protein not stated peptide on HLA-A*02:01 (human).
T9 peptide: KIWEWLVGV
As to the kind of experiment: killing.

The target of test [11] is T10, CT45-IP alanine variant, position 7 peptide on HLA-A*02:01 (human).
T10 peptide: KIFEMLAGV
As to the kind of experiment: killing.

Test [12] deals with T11, similar peptide SP-05-0009, source protein not stated peptide on HLA-A*02:01 (human).
T11 peptide: KIIDLLPKV
As to the kind of experiment: killing.

Test [13] has as its target T12, similar peptide SP-05-0010, source protein not stated peptide on HLA-A*02:01 (human).
T12 peptide: RIFETVNSV
As to the kind of experiment: killing.

The target in test [14] is T13, similar peptide SP-05-0006, source protein not stated peptide on HLA-A*02:01 (human).
T13 peptide: KIAELLENV
The experiment in a line: killing.

In test [15] the target is T14, CT45-IP alanine variant, position 6 peptide on HLA-A*02:01 (human).
T14 peptide: KIFEMAEGV
As to the kind of experiment: killing.

Test [16] deals with CT45-IP-HLA-A*02 dextramer (human). The experiment in a line: flow cytometry, dextramer staining of TCR-mRNA electroporated T cells, gated on CD3+. A general note: Flow cytometry measures light scatter and fluorescence of single cells or particles in a stream.
The target in test [17] is T1, CT45 (CT45A1, A2, A3, A5 to A10); …. As to the kind of experiment: luciferase release, 24 h, 1:1; CD8+ T cells with TCR mRNA, T2 cells with titrated peptide; full-length, on cells.
For test [18], the target named is T15, CT45-IP alanine variant, position 4 peptide on HLA-A*02:01 (human).
T15 peptide: KIFAMLEGV
The experiment in a line: killing.

Test [19] concerns the target T16, CT45-IP alanine variant, position 1 peptide on HLA-A*02:01 (human).
T16 peptide: AIFEMLEGV
The experiment in a line: killing.

In test [20] the target is T17, CT45-IP alanine variant, position 3 peptide on HLA-A*02:01 (human).
T17 peptide: KIAEMLEGV
The experiment in a line: killing.

Here are results for three molecules from US20230057987A1 (published 2023).

B1: TCR-14 (TCR, V domains shown)
Valpha: QKITQTQPGMFVQEKEAVTLDCTYDTSDQSYGLFWYKQPSSGEMIFLIYQGSYDEQNATEGRYSLNFQKARKSANLVISASQLGDSAMYFCAINGLPGSARQLTFGSGTQLTVLP
Vbeta: GVAQSPRYKIIEKRQSVAFWCNPISGHATLYWYQQILGQGPKLLIQFQNNGVVDDSQLPKDRFSAERLKGVDSTLKIQPAKLEDSAVYLCASSRFVATGTSPLHFGNGTRLTVT
B1 had a dextramer-positive events in [1] of 11.6%. In addition, in [2], the EC50, half maximal killing capacity (functional avidity; CT45-IP peptide titration on T2 cells, luciferase release) turned out to be 17.7 nM. In addition, the binding result in test [3], in [4], in test [5], in [6], in [7] and in test [8] was “no recognition” in each case. Besides, the binding result was “recognises” in test [9]; “no recognition” in test [10]; “recognises” in test [11]; “no recognition” in [12]; “no recognition” in [13]; “no recognition” in [14]. Also, the binding result in [15] is on record as “recognises”. This molecule also returned a surface expression, % positive events by CT45-IP-HLA-A2*02 dextramer staining in test [16] of 11.6%. In [17], this molecule yielded an EC50 of peptide of 17.7 nM.

B2: TCR-8 (TCR, V domains shown)
Valpha: QKVTQAQTEISVVEKEDVTLDCVYETRDTTYYLFWYKQPPSGELVFLIRRNSFDEQNEISGRYSWNFQKSTSSFNFTITASQVVDSAVYFCALSGRGSGTYKYIFGTGTRLKVLA
Vbeta: GVIQSPRHLIKEKRETATLKCYPIPRHDTVYWYQQGPGQDPQFLISFYEKMQSDKGSIPDRFSAQQFSDYHSELNMSSLELGDSALYFCASSAGTSYNEQFFGPGTRLTVL
B2 displayed a dextramer-positive events in test [1] of 60.7%. Further, in [2], the EC50, half maximal killing capacity (functional avidity; CT45-IP peptide titration on T2 cells, luciferase release) amounted to 6.52 nM. The binding result in [3], in [4], in [5], in [6], in [7] and in test [8] was “no recognition” throughout. Further, the binding result in [9] is “recognises”; in [10] it was “no recognition”; in test [18], “recognises”; in test [12], “no recognition”; in test [13], “no recognition”; in test [14], “no recognition”. The binding result in test [19], in [15] and in test [20] was “recognises” each time. Further, the surface expression, % positive events by CT45-IP-HLA-A2*02 dextramer staining in [16] turned out to be 60.7%. In [17], this molecule yielded an EC50 of peptide of 6.52 nM.

B3: TCR-10 (TCR, V domains shown)
Valpha: QNIDQPTEMTATEGAIVQINCTYQTSGFNGLFWYQQHAGEAPTFLSYNVLDGLEEKGRFSSFLSRSKGYSYLLLKELQMKDSASYLCAVPAPYTGTASKLTFGTGTRLQVTL
Vbeta: GVTQTPKFQVLKTGQSMTLQCAQDMNHNSMYWYRQDPGMGLRLIYYSASEGTTDKGEVPNGYNVSRLNKREFSLRLESAAPSQTSVYFCASSEGYSTYNEQFFGPGTRLTVL
Turning to B3, the dextramer-positive events in [1] turned out to be 52.8%. Besides, in test [2], the EC50, half maximal killing capacity (functional avidity; CT45-IP peptide titration on T2 cells, luciferase release) is 8.75 nM. Moreover, the binding result in [3], in [4], in test [5], in [6], in test [7] and in test [8] was “no recognition” each time. The binding result in [9] was “recognises”; in [10], “no recognition”; in test [18] it was “recognises”; in test [12] it was “no recognition”; in [13], “no recognition”; in test [14], “no recognition”. For the same molecule, the binding result in test [19] and in [20] was “recognises” each time. This molecule also registered a surface expression, % positive events by CT45-IP-HLA-A2*02 dextramer staining in test [16] of 52.8%. Besides, in test [17], the EC50 of peptide worked out at 8.75 nM.
